In patent publication US20250277008A1, “Novel Anti-Bacterial Peptides Derived From Differentiating Stem Cells” (AGENCY FOR SCIENCE, TECHNOLOGY AND RESEARCH, priority 2022, published 2025):
≈ marks a conversion by molar mass, not a printed value. Entries after “also recorded” stand apart in the source; their conditions may differ. Where two headings read alike, the source gives them in different places. Ends that are not written are not given here.

Columns and labels:
[1] = test system: human keratinocytes; test: 2-dimensional scratch assay; type: cell-based; details: compared to media control
Description: Cell confluency of human keratinocytes were assessed in presence of peptides in a 2D scratch assay at each timepoint by applying an ImageJ plugin PHANTAST on phase contrast time lapse images. The rate of change of keratinocytes confluency was calculated by obtaining a best fit line across the confluency vs time plot as described in. The rate of change of confluence was used as a surrogate measure for speed of migrating keratinocytes.

[2] = test system: S. typhimurium (ST); test: Anti-bacterial resistance evolution assay (serial passaging); type: cell-based; details: Salmonella enterica, 384 h, read-out: Minimum Inhibitory Concentration (MIC) after serial passaging
Description: To determine the antibacterial effects of the ASC-CM or anti-bacterial peptides, intracellular ATP levels of the bacteria was determined by the ATP Determination Kit. As indicated in the antibacterial assay protocol, after overnight incubation of the ASC-CM or peptides with bacteria for a period of 24 hours, the culture was first spun to eliminate the extracellular ATP and other metabolic waste released from the dead bacteria. The bacterial pellet was resuspended in equivalent amount of water and the levels of intracellular ATP was calculated based on manufacturer's instructions.
The resistance development of S. typhimurium (ST) strain was assessed by sequential passaging in the presence of sub-inhibitory concentrations of gentamicin or ASC-CM. Briefly, sequential passaging of S. typhimurium (ST) cells was done with full-strength, ½-strength, and ¼-strengths of ASC-CM or sub-inhibitory concentrations of gentamicin for a period of 4 weeks. The cells grown in sub-inhibitory strengths of either conditioned media (CM) or gentamicin were diluted to A600 nm (OD600) of 0.1 and serially passaged daily with the same concentrations for 4 weeks at 37° C. with agitation at 24 h intervals.

[3] = test system: 3-day old P. aeruginosa (PA) biofilm; test: Estimation of biofilm disruption (crystal violet staining); type: cell-based, Pseudomonas aeruginosa (ATCC 14213)
Description: Biofilms were grown in cation adjusted MH2 broth for 72 hours in 96-well clear bottom polystyrene plates. The biofilm inoculum was prepared by subculturing overnight bacterial culture for 90 minutes until OD600 reaches ˜0.3-0.4. 200 μL of biofilm inoculum was aliquoted into each well of the 96-well plate. After 72 hours of static incubation at 37° C., the spent media was expelled, and the biofilms were treated with ASC-CM for 24 hours. […] Briefly, all the contents in the 96-well plates were removed and the wells were washed thrice with 1×PBS (Phosphate Buffer Solution) to remove the non-adherent planktonic bacteria. The attached biofilms were fixed with 95% methanol for 5 minutes. The wells were air-dried and stained with 0.1% crystal violet solution for 15 minutes at room temperature. The crystal violet solution was removed, and the wells were washed with water three times. The plates were again air-dried, and the stained biofilm was solubilized using 30% acetic acid. The absorbance of the biofilms were recorded at OD595 using Micro xMark™ Microplate Absorbance Spectrophotometer.

[4] = test system: P. aeruginosa (PA); type: cell-based, Pseudomonas aeruginosa (ATCC 14213); details: for minimum bactericidal concentration (MBC): PA; for minimum bactericidal concentration (MBC) / concentration required to significantly kill: MBC = lowest concentration killing ≥50% colonies vs media control
Description: (§1) Examination of the potency of conditioned media obtained from adipose-derived mesenchymal stem cells (ASC-CM) and recombinant peptides against S. typhimurium, P. aeruginosa and S. aureus strains were performed by using the broth microdilution protocol from the Clinical and Laboratory Standards Institute (CLSI) guidelines (CLSI 2012). Briefly, five freshly plated bacteria colonies were grown in cation adjusted MH2 broth in a shaker incubator at 37° C., 220 RPM. Cells were grown to an optical density (OD600) of 0.20 using a Microplate Spectrophotometer. 100 μL of microbial culture containing ˜5×10^5 CFU/mL of bacteria in the respective broths were introduced into each well containing 100 μL of ASC-CM or peptides and incubated overnight at 37° C. Next, to check the bactericidal effects, 100 μL from each well was transferred and spread on sterile MH2 agar plates. The plates were incubated overnight at 37° C. and the number of colonies forming units (CFU) was observed the next day. Readings of bacteria grown in media without any treatments were normalized to 100% as media control. Minimum bactericidal concentration (MBC) was defined as the lowest peptide concentration (μM) required to kill ≥50% bacterial colonies compared to the media control.

[5] = test system: P. aeruginosa 14213; test: Murine excisional wound infection model; type: in vivo, mice; details: wounds infected 24 hours, then ENO3 (0.2 nM) or SPARCL1 (0.067 nM) for 24 hours; vs untreated controls
Description: The murine wound infection model was carried as described with minor modifications. […] Statistical analysis was performed by Student's t-test compared to untreated (PBS). All approved procedures were performed in accordance with the 218 Institutional Animal Care and Use Committee (IACUC) in Nanyang Technological 219 University, School of Biological Sciences (ARFSBS/NIEA0198Z) for murine wound infection model.
The biofilm disruption ability of ENO3 and SPARCL1 in a murine excisional wound infection model. Excisional wounds were infected with ˜10^3 CFU of P. aeruginosa 14213 and treated for 24 hours to form the biofilms. […] Post-treatment, the wound region was excised, and the bacterial count were enumerated.

[6] = test system: S. typhimurium (ST); test: Antibacterial assay (CLSI broth microdilution, CFU counts); type: cell-based; details: for minimum bactericidal concentration (MBC) / concentration required to significantly kill: MBC = lowest concentration killing ≥50% colonies vs media control
Description: as §1

[7] = test system: S. aureus (SA); type: cell-based; details: for minimum bactericidal concentration (MBC) / concentration required to significantly kill: MBC = lowest concentration killing ≥50% colonies vs media control
Description: as §1

[8] = test system: 3-day old S. typhimurium (ST) biofilm; test: Estimation of biofilm disruption (crystal violet staining); type: cell-based, Salmonella typhimurium
Description: Biofilms were grown in cation adjusted MH2 broth for 72 hours in 96-well clear bottom polystyrene plates. The biofilm inoculum was prepared by subculturing overnight bacterial culture for 90 minutes until OD600 reaches ˜0.3-0.4. 200 μL of biofilm inoculum was aliquoted into each well of the 96-well plate. After 72 hours of static incubation at 37° C., the spent media was expelled, and the biofilms were treated with ASC-CM for 24 hours. Post-treatment, the minimum biofilm inhibition concentration (MBIC) showing >50% reduction was determined by quantifying the levels of remaining attached biofilm, by crystal violet staining method. Briefly, all the contents in the 96-well plates were removed and the wells were washed thrice with 1×PBS (Phosphate Buffer Solution) to remove the non-adherent planktonic bacteria. The attached biofilms were fixed with 95% methanol for 5 minutes. The wells were air-dried and stained with 0.1% crystal violet solution for 15 minutes at room temperature. The crystal violet solution was removed, and the wells were washed with water three times. The plates were again air-dried, and the stained biofilm was solubilized using 30% acetic acid. The absorbance of the biofilms were recorded at OD595 using Micro xMark™ Microplate Absorbance Spectrophotometer.

[9] = test system: P. aeruginosa (PA); type: cell-based, Pseudomonas aeruginosa (ATCC 14213); details: FIG. 6H

Molecule: CN[C@@H]1[C@@H](O)C(O[C@@H]2[C@@H](O)[C@H](O[C@H]3O[C@H]([C@@H](C)NC)CC[C@H]3N)[C@@H](N)C[C@H]2N)OC[C@]1(C)O (stereo partly drawn) [Gentamicin, (3R,4R,5R)-2-{[(1S,2S,3R,4S,6R)-4,6-diamino-3-{[(2R,3R,6S)-3-amino-6-[(1R)-1-(methylamino)ethyl]oxan-2-yl]oxy}-2-hydroxycyclohexyl]oxy}-5-methyl-4-(methylamino)oxane-3,5-diol, reference compound]
- migration of human keratinocytes (rate of change of confluency) [1]: significantly impaired; also recorded: no cell migration is observed
- MIC [2]: 1020 µg/mL (≈ 2140 µM)

Molecule: HHKAEKSSVLKSKEESH [Peptide S1A, HHKAEKSSVLKSKEESH]
- biofilm disruption activity ([3]; S1A 0.78 μM-3.125 μM): more than 50%
- minimum bactericidal concentration (MBC) [4]: 100000 nM
- anti-bacterial activity (bacterial viability) ([4]; S1A 100 μM): more than 50%

Molecule: KVNQIGSVTESIQACKLAQSN [Peptide E1A]
- migration of human keratinocytes (rate of change of confluency) [1]: increased migration of human keratinocytes; also recorded: higher migration speed
- biofilm disruption activity ([3]; E1A 0.39 μM-1.56 μM): more than 50%
- anti-bacterial activity (bacterial viability) ([4]; E1A 0.39 μM): more than 50%
- minimum bactericidal concentration (MBC) [4]: 390 nM

Molecule: KQRNKVKKIYLDEKR [Peptide S1B, KQRNKVKKIYLDEKR]
- biofilm disruption activity ([3]; S1B 6.25 μM-12.5 μM): more than 50%
- minimum bactericidal concentration (MBC) [4]: 50000 nM
- anti-bacterial activity (bacterial viability) ([4]; S1B 50 μM): more than 50%

B1: ENO3: recombinant full-length human ENO3 peptide, SEQ ID NO: 1, identified in bacteria-primed ASC conditioned media (protein, listed as Homo sapiens)
chain: MAMQKIFAREILDSRGNPTVEVDLHTAKGRFRAAVPSGASTGIYEALELRDGDKGRYLGKGVLKAVENINNTLGPALLQKKLSVVDQEKVDKFMIELDGTENKSKFGANAILGVSLAVCKAGAAEKGVPLYRHIADLAGNPDLILPVPAFNVINGGSHAGNKLAMQEFMILPVGASSFKEAMRIGAEVYHHLKGVIKAKYGKDATNVGDEGGFAPNILENNEALELLKTAIQAAGYPDKVVIGMDVAASEFYRNGKYDLDFKSPDDPARHITGEKLGELYKSFIKNYPVVSIEDPFDQDDWATWTSFLSGVNIQIVGDDLTVTNPKRIAQAVEKKACNCLLLKVNQIGSVTESIQACKLAQSNGWGVMVSHRSGETEDTFIADLVVGLCTGQIKTGAPCRSERLAKYNQLMRIEEALGDKAIFAGRKFRNPKAK
- migration of human keratinocytes (rate of change of confluency) [1]: increased migration of human keratinocytes; also recorded: higher keratinocytes migration rate
- bacterial colonies (CFU counts) in excised wound [5]: reduction of bacterial colonies; also recorded: Reduction in bacterial colonies
- bacterial reduction (CFU %) ([6]; ENO3 2.04 nM): more than 50%
- minimum bactericidal concentration (MBC) / concentration required to significantly kill [6]: 2.04 nM
- biofilm disruption ([3]; ENO3 about 0.0102 nM): ~50%
- bacterial reduction (CFU %) ([7]; ENO3 0.102 nM, FIG. 6C): more than 50%
- minimum bactericidal concentration (MBC) / concentration required to significantly kill [7]: 0.102 nM
- MBC ([7]; S. aureus, >99% reduction of viable colonies, FIG. 6G): 2000 nM
- MIC ([7]; S. aureus, spot plate, FIG. 6G): 2000 nM
- bacterial reduction (CFU %) ([4]; ENO3 0.204 nM): more than 50%
- minimum bactericidal concentration (MBC) / concentration required to significantly kill [4]: 0.204 nM
- biofilm disruption ([8]; ENO3 about 0.0102 nM): more than 50%
- MBC ([9]; >99% reduction of viable colonies): 6000 nM
- MIC ([9]; spot plate): 4000 nM

B2: SPARCL1: recombinant full-length human SPARCL1 peptide, SEQ ID NO: 2, identified in bacteria-primed ASC conditioned media (protein, listed as Homo sapiens)
chain: MKTGLFFLCLLGTAAAIPTNARLLSDHSKPTAETVAPDNTAIPSLRAEAEENEKETAVSTEDDSHHKAEKSSVLKSKEESHEQSAEQGKSSSQELGLKDQEDSDGHLSVNLEYAPTEGTLDIKEDMSEPQEKKLSENTDFLAPGVSSFTDSNQQESITKREENQEQPRNYSHHQLNRSSKHSQGLRDQGNQEQDPNISNGEEEEEKEPGEVGTHNDNQERKTELPREHANSKQEEDNTQSDDILEESDQPTQVSKMQEDEFDQGNQEQEDNSNAEMEEENASNVNKHIQETEWQSQEGKTGLEAISNHKETEEKTVSEALLMEPTDDGNTTPRNHGVDDDGDDDGDDGGTDGPRHSASDDYFIPSQAFLEAERAQSIAYHLKIEEQREKVHENENIGTTEPGEHQEAKKAENSSNEEETSSEGNMRVHAVDSCMSFQCKRGHICKADQQGKPHCVCQDPVTCPPTKPLDQVCGTDNQTYASSCHLFATKCRLEGTKKGHQLQLDYFGACKSIPTCTDFEVIQFPLRMRDWLKNILMQLYEANSEHAGYLNEKQRNKVKKIYLDEKRLLAGDHPIDLLLRDFKKNYHMYVYPVHWQFSELDQHPMDRVLTHSELAPLRASLVPMEHCITRFFEECDPNKDKHITLKEWGHCFGIKEEDIDENLLF
- migration of human keratinocytes (rate of change of confluency) [1]: increased migration of human keratinocytes; also recorded: higher keratinocytes migration rate
- bacterial colonies (CFU counts) in excised wound [5]: reduction of bacterial colonies; also recorded: Reduction in bacterial colonies
- minimum bactericidal concentration (MBC) / concentration required to significantly kill [6]: 0.0067 nM
- bacterial reduction (CFU %) ([6]; SPARCL1 0.0067 nM): more than 50%
- biofilm disruption ([3]; SPARCL1 about 0.00134 nM): ~50%
- minimum bactericidal concentration (MBC) / concentration required to significantly kill [7]: 1000 nM
- bacterial reduction (CFU %) ([7]; SPARCL1 1000 nM, FIG. 6F): more than 50%
- minimum bactericidal concentration (MBC) / concentration required to significantly kill [4]: 268 nM
- bacterial reduction (CFU %) ([4]; SPARCL1 268 nM): more than 50%
- biofilm disruption ([8]; SPARCL1 about 0.00134 nM): ~50%
